Where two headings read alike, the source gives them in different places.
Columns and labels:
VEGFR-1 Fc chimera [1] = molecular target: T1, VEGFR-1 Fc chimera (UniProt P17948 27-758); test: SPR
VEGFR-1 Fc chimera [2] = molecular target: T1, VEGFR-1 Fc chimera; test: SPR; remark: listed apart in the source

T1 sequence (P17948 27-758, change not shown): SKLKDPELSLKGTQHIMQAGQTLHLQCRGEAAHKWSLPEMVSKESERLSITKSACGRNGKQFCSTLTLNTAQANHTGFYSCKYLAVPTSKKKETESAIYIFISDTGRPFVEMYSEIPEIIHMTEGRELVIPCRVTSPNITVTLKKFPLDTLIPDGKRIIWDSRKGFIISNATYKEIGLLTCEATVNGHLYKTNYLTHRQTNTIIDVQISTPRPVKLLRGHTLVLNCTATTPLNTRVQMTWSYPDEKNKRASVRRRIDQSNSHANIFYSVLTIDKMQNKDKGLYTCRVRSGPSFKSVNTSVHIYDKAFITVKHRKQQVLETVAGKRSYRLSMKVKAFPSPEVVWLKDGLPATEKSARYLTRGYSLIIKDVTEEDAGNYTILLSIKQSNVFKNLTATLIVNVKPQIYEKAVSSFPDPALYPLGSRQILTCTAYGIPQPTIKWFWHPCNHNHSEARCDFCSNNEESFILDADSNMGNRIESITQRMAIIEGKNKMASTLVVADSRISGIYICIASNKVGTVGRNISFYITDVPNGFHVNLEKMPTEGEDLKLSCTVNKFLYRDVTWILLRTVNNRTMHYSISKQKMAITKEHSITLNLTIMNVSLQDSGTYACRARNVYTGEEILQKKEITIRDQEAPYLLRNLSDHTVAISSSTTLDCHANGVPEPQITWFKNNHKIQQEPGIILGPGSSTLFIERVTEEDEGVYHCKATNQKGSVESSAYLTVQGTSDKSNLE

Row | Binder | Kd (VEGFR-1 Fc chimera [1]) | Kd (VEGFR-1 Fc chimera [2])
1 | GCTGATAGGATGGGTTGTAGGTCTAGGGGGGGGCC (structured_DNA) [Apt02] | 1.5 nM | 
2 | GTCGTGTTTGTTGTTGTTTTCATTTTTGCGGCCC (structured_DNA) [Apt01] |  | 3.3 nM
